# Measured values reported in patent publication US20160237160A1, “ANTI-TWEAKR ANTIBODIES AND USES THEREOF” (BAYER PHARMA AKTIENGESELLSCHAFT, priority 2013, published 2016).
# B1: P3G5(TPP-2195): reference anti-TWEAKR antibody, murine IgG2a, from WO2009/140177; SEQ ID NO 121/122 (protein)
# light: DIVLTQSPASLAVSLGQRATISCRANKSVSTSSYSYMHWYQQKPGQPPKLLIKYASNLESGVPARFSGSGSGTDFILNIHPVEEEDAATYYCQHSRELPFTFGSGTKLEIKRADAAPTVSIFPPSSEQLTSGGASVVCFLNNFYPKDINVKWKIDGSERQNGVLNSWTDQDSKDSTYSMSSTLTLTKDEYERHNSYTCEATHKTSTSPIVKSFNRNEC
# heavy: QVQLQQSGPEVVRPGVSVKISCKGSGYTFTDYGIHWVKQSHAKSLEWIGVISTYNGYTNYNQKFKGKATMTVDKSSSTAYMELARLTSEDSAIYYCARAYYGNLYYAMDYWGQGTSVTVSSAKTTAPSVYPLAPVCGDTTGSSVTLGCLVKGYFPEPVTLTWNSGSLSSGVHTFPAVLQSDLYTLSSSVTVTSSTWPSQSITCNVAHPASSTKVDKKIEPRGPTIKPCPPCKCPAPNLLGGPSVFIFPPKIKDVLMISLSPIVTCVVVDVSEDDPDVQISWFVNNVEVHTAQTQTHREDYNSTLRVVSALPIQHQDWMSGKEFKCKVNNKDLPAPIERTISKPKGSVRAPQVYVLPPPEEEMTKKQVTLTCMVTDFMPEDIYVEWTNNGKTELNYKNTEPVLDSDGSYFMYSKLRVEKKNWVERNSYSCSVVHEGLHNHHTTKSFSRTPG
# modifications: Mus Musculus
# Experiments:
# [1] = target: T1, TWEAKR-Fc fusion protein (TPP-2202), aa 28-80 (Homo sapiens, UniProt Q9NP84); assay: ELISA with TWEAKR full ectodomain; type: binding; conditions: coating 1 μg/ml; 0.08 and 0.3 μg/ml biotinylated IgG
# T1 construct: the full ectodomain 28-80 including the N- and C-terminus; made in house
# Excerpt: (§1) In a first approach to characterize the binding epitope of the aforementioned antibodies, a N- and C-terminal truncation mutant of the TWEAKR ectodomain was generated and tested for its ability to bind to the different anti-TWEAKR antibodies. N-terminally, amino acids 28 to 33 and C-terminally amino acids 69 to 80 were deleted, thus the cysteine rich domain with disulfide bridges between Cys36-Cys49, Cys52-Cys67 and Cys55-Cys64 remains intact (compare FIG. 2). Both constructs, the full ectodomain 28-80 including the N- and C-terminus and the truncated ectodomain 34-68 were expressed and purified as Fc fusion proteins TPP-2202 and TPP-2203, respectively.
# (§2) To analyze for binding, 1 μg/ml of the respective dimeric TWEAKR-Fc construct were coated and, 0.3 μg/ml and 0.08 μg/ml of biotinylated IgG were used as soluble binding partner. Detection was done with Streptavidin-HRP and Amplex-Red substrate. IgGs were biotinylated using an approximately 2-fold molar excess of biotin-LC-NHS (Pierce; Cat. No. 21347) according to manufacturer's instructions and desalted using Zeba desalting columns (Pierce; Cat. No. 89889).
# [2] = target: T2, TWEAKR-Fc mutein S40R (TPP-1987) (Homo sapiens, UniProt Q9NP84, S40R); assay: ELISA mutein binding; conditions: coating 62 ng/ml; biotinylated IgG from 100 nM; read-out: IC50 of antibody binding, S40R
# T2 construct: the full ectodomain (amino acids 28-80) with the following single amino acid substitutions; made in house
# Protocol: (§3) Therefore, the full ectodomain (amino acids 28-80) with the following single amino acid substitutions were expressed and purified as Fc fusion proteins: T33Q; S40R; W42A; M50A; R56P; H60K; L65Q.
# (§4) To collect dose-response data, the different TWEAKR-Fc muteins were coated with a low concentration (62 ng/ml) in a 384-well Maxisorb ELISA plate and a serial 2fold dilution of biotinylated IgG starting with a concentration of 100 nM was used as soluble binding partner. Detection was done with Streptavidin-HRP and Amplex Red.
# (§5) IgGs were biotinylated using an approximately 2-fold molar excess of biotin-LC-NHS (Pierce; Cat. No. 21347) according to manufacturer's instructions and desalted using Zeba desalting columns (Pierce; Cat. No. 89889). The dose-response data were fitted and IC50s determined.
# [3] = target: T3, TWEAKR-Fc mutein M50A (TPP-1988) (Homo sapiens, UniProt Q9NP84, M50A); assay: ELISA mutein binding; conditions: coating 62 ng/ml; biotinylated IgG from 100 nM; read-out: IC50 of antibody binding, M50A
# T3 construct: the full ectodomain (amino acids 28-80) with the following single amino acid substitutions; made in house
# Protocol: as §3, §4, §5
# [4] = target: T4, TWEAKR-Fc mutein W42A (TPP-1985) (Homo sapiens, UniProt Q9NP84, W42A); assay: ELISA mutein binding; conditions: coating 62 ng/ml; biotinylated IgG from 100 nM; read-out: IC50 of antibody binding, W42A
# T4 construct: the full ectodomain (amino acids 28-80) with the following single amino acid substitutions; made in house
# Protocol: as §3, §4, §5
# TWEAKR-Fc WT (TPP-599) = target: T5, TWEAKR-Fc WT (TPP-599) (Homo sapiens, UniProt Q9NP84); assay: ELISA mutein binding; conditions: coating 62 ng/ml; biotinylated IgG from 100 nM; read-out: IC50 of antibody binding, WT
# T5 construct: TPP-599; HUMAN-TNFRSF12Aaa28-80-hIgG1-Fc; 138; made in house
# Protocol: as §3, §4, §5
# [5] = target: T6, TWEAKR-Fc mutein T33Q (TPP-1986) (Homo sapiens, UniProt Q9NP84, T33Q); assay: ELISA mutein binding; conditions: coating 62 ng/ml; biotinylated IgG from 100 nM; read-out: IC50 of antibody binding, T33Q
# T6 construct: the full ectodomain (amino acids 28-80) with the following single amino acid substitutions; made in house
# Protocol: as §3, §4, §5
# [6] = target: T7, TWEAKR-Fc mutein L65Q (TPP-1990) (Homo sapiens, UniProt Q9NP84, L65Q); assay: ELISA mutein binding; conditions: coating 62 ng/ml; biotinylated IgG from 100 nM; read-out: IC50 of antibody binding, L65Q
# T7 construct: the full ectodomain (amino acids 28-80) with the following single amino acid substitutions; made in house
# Protocol: as §3, §4, §5
# [7] = target: T8, TWEAKR-Fc mutein R56P (TPP-2683) (Homo sapiens, UniProt Q9NP84, R56P); assay: ELISA mutein binding; conditions: coating 62 ng/ml; biotinylated IgG from 100 nM; read-out: IC50 of antibody binding, R56P
# T8 construct: the full ectodomain (amino acids 28-80) with the following single amino acid substitutions; made in house
# Protocol: as §3, §4, §5
# [8] = target: T9, TWEAKR-Fc mutein H60K (TPP-1989) (Homo sapiens, UniProt Q9NP84, H60K); assay: ELISA mutein binding; conditions: coating 62 ng/ml; biotinylated IgG from 100 nM; read-out: IC50 of antibody binding, H60K
# T9 construct: the full ectodomain (amino acids 28-80) with the following single amino acid substitutions; made in house
# Protocol: as §3, §4, §5
# [9] = target: T10, TWEAKR(34-68)-Fc fusion protein (TPP-2203) (Homo sapiens, UniProt Q9NP84); assay: ELISA with TWEAKR cysteine rich domain; type: binding; conditions: coating 1 μg/ml; 0.08 and 0.3 μg/ml biotinylated IgG
# T10 construct: the truncated ectodomain 34-68 were expressed and purified as Fc fusion proteins; made in house
# Excerpt: as §1, §2
# [10] = target: T11, TWEAKR(28-68)-HIS (TPP-1984) (Homo sapiens, UniProt Q9NP84); assay: ELISA with C-terminally truncated TWEAKR ectodomain; type: binding; conditions: coating 1 μg/ml; 0.08 and 0.3 μg/ml biotinylated IgG
# T11 construct: Extracellular domain with C-terminal truncation (28-68) fused to HIS6 tag; made in house
# Protocol: as §2
# [11] = target: T12, TWEAKR protein (TPP-2305) (Homo sapiens, UniProt Q9NP84); assay: Biacore monovalent KD with TWEAKR protein; type: binding; conditions: first order 1:1 binding model
# T12 construct: TPP-2305; hTNFRSF12Aaa28-80; Human; 30R-AT080; 168; purchased Fitzgerald Inc 30R-AT080
# Protocol: Binding affinities of anti-TWEAKR antibodies were determined by surface plasmon resonance analysis on a Biacore T100 instrument (GE Healthcare Biacore, Inc.). Antibodies were immobilized onto a CM5 sensor chip through an indirect capturing reagent, anti-human IgG(Fc). Reagents from the “Human Antibody Capture Kit” (BR-1008-39, GE Healthcare Biacore, Inc.) were used as described by the manufacturer. Anti-TWEAKR antibodies were injected at a concentration of 10 μg/ml at 10 μl/min for 10 sec.
# Sensorgrams were generated after in-line reference cell correction followed by buffer sample subtraction. The dissociation equilibrium constant (KD) was calculated based on the ratio of association (kon) and dissociation rated (koff) constants, obtained by fitting sensorgrams with a first order 1:1 binding model.
molecule,measurement,setting,value
B1,ELISA binding to full ectodomain (28-80),[1],saturated binding
same,IC50,[2],0.001 to 0.15 nM
same,IC50,[3],0.001 to 0.15 nM
same,IC50,[4],> 50 nM
same,IC50,TWEAKR-Fc WT (TPP-599),0.001 to 0.15 nM
same,IC50,[5],0.001 to 0.15 nM
same,IC50,[6],0.001 to 0.15 nM
same,IC50,[7],0.001 to 0.15 nM
same,IC50,[8],0.001 to 0.15 nM
same,ELISA binding to N- and C-terminally truncated construct (34-68),[9],impaired binding
same,ELISA binding to C-terminally truncated ectodomain (28-68),[10],impaired binding
same,ka,[11],2.31e+06 M⁻¹ s⁻¹
same,kd,[11],0.00122 s⁻¹
